Results taken from US20230220042A1 (SHANGHAI JIAO TONG UNIVERSITY SCHOOL OF MEDICINE, published 2023).
Residue numbers refer to the chain shown, from its start. In names and notes the source's numbering stands.

T1: Biotin-FcγRIIB (human, UniProt P31994 43-217, limits assumed, biotin label)
T1 construct: Soluble labelled protein used to stain and sort the display cells; also called human FcγRIIB; CD32b
T1 sequence (looked up): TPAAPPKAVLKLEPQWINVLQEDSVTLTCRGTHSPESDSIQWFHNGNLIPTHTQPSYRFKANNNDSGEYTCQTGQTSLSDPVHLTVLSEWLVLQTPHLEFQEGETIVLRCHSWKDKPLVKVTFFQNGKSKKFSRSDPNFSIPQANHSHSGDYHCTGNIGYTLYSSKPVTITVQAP

T2: Biotin-FcγRIIB (human FcγRIIB, Sino Biological) (human, UniProt P31994 43-217, limits assumed, biotin-labeled)
T2 construct: Used at 1 µg/ml with Streptavidin-APC for flow cytometry and sorting; also called CD32b
T2 sequence (looked up): T1 sequence (looked up)

B1: human IgG2 anti-mouse CD40 surface displayed antibody, S267V/S298L/L328W (antibody, name in EU numbering)
light chain (with the P2A rest): DTVLTQSPALAVSPGERVTISCRASDSVSTLMHWYQQKPGQQPKLLIYLASHLESGVPARFSGSGSGTDFTLTIDPVEADDTATYYCQQSWNDPWTFGGGTKLELKRTVAAPSVFIFPPSDEQLKSGTASVVCLLNNFYPREAKVQWKVDNALQSGNSQESVTEQDSKDSTYSLSSTLTLSKADYEKHKVYACEVTHQGLSSPVTKSFNRGECGSGATNFSLLKQAGDVEENPG
heavy chain: EVQLVESDGGLVQPGRSLKLPCAASGFTFSDYYMAWVRQAPTKGLEWVASISYDGSSTYYRDSVKGRFTISRDNAKSTLYLQMDSLRSEDTATYYCGRHSSYFDYWGQGVMVTVSSASTKGPSVFPLAPCSRSTSESTAALGCLVKDYFPEPVTVSWNSGALTSGVHTFPAVLQSSGLYSLSSVVTVPSSNFGTQTYTCNVDHKPSNTKVDKTVERKCCVECPPCPAPPVAGPSVFLFPPKPKDTLMISRTPEVTCVVVDVVHEDPEVQFNWYVDGVEVHNAKTKPREEQFNLTFRVVSVLTVVHQDWLNGKEYKCKVSNKGWPAPIEKTISKTKGQPREPQVYTLPPSREEMTKNQVSLTCLVKGFYPSDIAVEWESNGQPENNYKTTPPMLDSDGSFFLYSKLTVDKSRWQQGNVFSCSVMHEALHNHYTQKSLSLSPGKLEPPPSTVSNMATVAVLVVLGAAIVTGAVVAFVMKMRRRNTGGKGGDYALAPGSQTSDLSLPDCKVMVHDPHSLA
notes: As m1 with the Fc mutations
B2: human IgG2 anti-mouse CD40 surface displayed antibody, V266L/L328W (antibody, name in EU numbering)
light chain (with the P2A rest): B1 light chain (with the P2A rest)
heavy chain: B1 heavy chain with V261L, V262S, L293S
notes: As m1 with the Fc mutations
B3: human IgG2 anti-mouse CD40 surface displayed antibody, V266L/S298L/L328W (antibody, name in EU numbering)
light chain (with the P2A rest): B1 light chain (with the P2A rest)
heavy chain: B1 heavy chain with V261L, V262S
notes: As m1 with the Fc mutations
B4: human IgG2 anti-mouse CD40 surface displayed antibody, S267V/S298G/L328W (antibody, name in EU numbering)
light chain (with the P2A rest): B1 light chain (with the P2A rest)
heavy chain: B1 heavy chain with L293G
notes: As m1 with the Fc mutations
B5: human IgG2 anti-mouse CD40 surface displayed antibody, S239V/V266L/S298L/L328W (antibody, name in EU numbering)
light chain (with the P2A rest): B1 light chain (with the P2A rest)
heavy chain: B1 heavy chain with S234V, V261L, V262S
notes: As m1 with the Fc mutations
B6: human IgG2 anti-mouse CD40 surface displayed antibody, H268D/S298L/L328W (antibody, name in EU numbering)
light chain (with the P2A rest): B1 light chain (with the P2A rest)
heavy chain: B1 heavy chain with V262S, H263D
notes: As m1 with the Fc mutations
B7: human IgG2 anti-mouse CD40 surface displayed antibody, S267E/P271W (antibody, name in EU numbering)
light chain (with the P2A rest): B1 light chain (with the P2A rest)
heavy chain: B1 heavy chain with V262E, P266W, L293S, W323L
notes: m1 with these Fc mutations (Eu numbering); copies: 2 + 2
B8: human IgG2 anti-mouse CD40 surface displayed antibody, S267G (antibody, name in EU numbering)
light chain (with the P2A rest): B1 light chain (with the P2A rest)
heavy chain: B1 heavy chain with V262G, L293S, W323L
notes: m1 with this Fc mutation (Eu numbering); copies: 2 + 2
B9: human IgG2 anti-mouse CD40 surface displayed antibody, S267Q (antibody, name in EU numbering)
light chain (with the P2A rest): B1 light chain (with the P2A rest)
heavy chain: B1 heavy chain with V262Q, L293S, W323L
notes: as for B8
B10: human IgG2 anti-mouse CD40 surface displayed antibody, S267E/P271Y (antibody, name in EU numbering)
light chain (with the P2A rest): B1 light chain (with the P2A rest)
heavy chain: B1 heavy chain with V262E, P266Y, L293S, W323L
notes: as for B7
B11: human IgG2 anti-mouse CD40 surface displayed antibody, S267M (antibody, name in EU numbering)
light chain (with the P2A rest): B1 light chain (with the P2A rest)
heavy chain: B1 heavy chain with V262M, L293S, W323L
notes: as for B8
B12: human IgG2 anti-mouse CD40 surface displayed antibody, S267M/P271G (antibody, name in EU numbering)
light chain (with the P2A rest): B1 light chain (with the P2A rest)
heavy chain: B1 heavy chain with V262M, P266G, L293S, W323L
notes: as for B7
B13: human IgG2 anti-mouse CD40 surface displayed antibody, V266G/P271C (antibody, name in EU numbering)
light chain (with the P2A rest): B1 light chain (with the P2A rest)
heavy chain: B1 heavy chain with V261G, V262S, P266C, L293S, W323L
notes: as for B7
B14: human IgG2 anti-mouse CD40 surface displayed antibody, V266A/P271C (antibody, name in EU numbering)
light chain (with the P2A rest): B1 light chain (with the P2A rest)
heavy chain: B1 heavy chain with V261A, V262S, P266C, L293S, W323L
notes: as for B7
B15: human IgG2 anti-mouse CD40 surface displayed antibody, V266A/P271G (antibody, name in EU numbering)
light chain (with the P2A rest): B1 light chain (with the P2A rest)
heavy chain: B1 heavy chain with V261A, V262S, P266G, L293S, W323L
notes: as for B7
B16: human IgG2 anti-mouse CD40 surface displayed antibody, S267M/P271C (antibody, name in EU numbering)
light chain (with the P2A rest): B1 light chain (with the P2A rest)
heavy chain: B1 heavy chain with V262M, P266C, L293S, W323L
notes: as for B7

target: T1, Biotin-FcγRIIB; assay: NGS of 3T3 display library Cmix flow-sorted for FcγRIIB binding

Row | enrichment factor, percentage after 1st sorting/percentage before sorting | enrichment factor, percentage after 2nd sorting/percentage after 1st sorting | enrichment factor, percentage after 3rd sorting/percentage after 2nd sorting | enrichment factor, percentage after 3rd sorting/percentage before sorting | increased factor, mutant enrichment factor/wild-type enrichment factor | percentage after 1st sorting | percentage after 2nd sorting | percentage after 3rd sorting | percentage before sorting | Binder
1 | 3.92 ratio | 73.6 ratio | 7.21 ratio | 2080 ratio | 5550 ratio | 0% | 0.13% | 0.9% | 0% | B1
2 | 4.71 ratio | 53.3 ratio | 5.53 ratio | 1390 ratio | 3700 ratio | 0% | 0.22% | 1.2% | 0% | B2
3 | 21.1 ratio | 64.8 ratio | 6.03 ratio | 8230 ratio | 21900 ratio | 0.06% | 4.14% | 25% | 0% | B3
4 |  | 47.4 ratio | 5.76 ratio |  |  | 0% | 0.03% | 0.19% |  | B4
5 |  | 39.1 ratio | 5.02 ratio |  |  | 0% | 0.07% | 0.33% |  | B5
6 |  | 44 ratio | 5.95 ratio |  |  | 0% | 0.21% | 1.25% |  | B6

target: T2, Biotin-FcγRIIB (human FcγRIIB, Sino …); assay: NGS after FACS sort of 3T3-displayed Library2 for biotin-FcγRIIB binding

Row | Enrichment factor (percentage after sorting/percentage before sorting) | Increased factor (enrichment factor/wild-type enrichment factor) | Binder
7 | 24 | 41.8 | B7
8 | 1.79 | 3.5 | B8
9 | 8.64 | 15.1 | B9
10 | 19.2 | 33.4 | B10
11 | 1.48 | 2.57 | B11
12 | 4.31 | 7.52 | B12
13 | 3.83 | 6.68 | B13
14 | 42.2 | 73.5 | B14
15 | 8.63 | 15 | B15
16 | 32.1 | 56 | B16
